Reference: paper PMC5014518

Target: T1, 2x-p19-TAT (Carnation Italian Ringspot Virus, UniProt Q66104 1-172)
T1 sequence: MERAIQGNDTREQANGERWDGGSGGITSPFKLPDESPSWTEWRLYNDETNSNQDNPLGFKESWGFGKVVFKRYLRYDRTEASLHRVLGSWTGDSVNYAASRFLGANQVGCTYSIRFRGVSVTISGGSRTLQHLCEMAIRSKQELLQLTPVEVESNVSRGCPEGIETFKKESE
Experiment: EMSA

B1: Cy3-CSK siRNA (dsRNA)
RNA 1: CUACCGCAUCAUGUACCAUTT
RNA 2: AUGGUACAUGAUGCGGUAGTT
modifications: 3' dTdT on both strands (DNA residues written TT)
- Kd: 0.44 ± 0.16 nM
